Read-outs that look alike come from different tables or passages of the source. *1 amine or outer side, *2 acyl side, *3 side chain or, on linkers, in order; H or OH if unused. Where no end group is shown, it is not given here. Side-chain parts run from the residue outwards. [ ]: non-standard residue; d: D form. The star is where a group is joined. γGlu = O=C(O)[C@H](CCC(=O)[*:2])N[*:1]; Stearoyl = CCCCCCCCCCCCCCCCCC(=O)*; Palmitoyl = CCCCCCCCCCCCCCCC(=O)*; αMeOrn = C[C@](N)(CCCN)C(=O)O; αMeK = C[C@](N)(CCCCN)C(=O)O; Aib = CC(C)(N)C(=O)O
T1: human GIP receptor (human, UniProt P48546 22-466)
T1 sequence (looked up): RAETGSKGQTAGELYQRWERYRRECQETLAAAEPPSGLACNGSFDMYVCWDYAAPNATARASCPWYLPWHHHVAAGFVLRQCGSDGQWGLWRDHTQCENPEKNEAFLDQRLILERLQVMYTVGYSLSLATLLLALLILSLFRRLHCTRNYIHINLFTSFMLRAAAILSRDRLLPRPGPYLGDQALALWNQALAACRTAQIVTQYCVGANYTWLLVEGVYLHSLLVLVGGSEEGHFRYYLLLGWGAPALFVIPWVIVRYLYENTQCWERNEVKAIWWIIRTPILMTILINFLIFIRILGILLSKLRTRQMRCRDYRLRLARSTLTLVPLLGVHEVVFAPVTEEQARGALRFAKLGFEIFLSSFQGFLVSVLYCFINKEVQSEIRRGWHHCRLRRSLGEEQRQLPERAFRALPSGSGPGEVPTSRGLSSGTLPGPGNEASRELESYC

B1: SEQ ID NO: 16 (peptide)
peptide: Y[Aib]EGTFTSDLSIQK([γGlu-Palmitoyl])EERAA[αMeK]EFIEWLKAGGPSSGAPPPS-NH2
modifications: N-terminus assumed
SMILES: CCCCCCCCCCCCCCCC(=O)N[C@@H](CCC(=O)NCCCC[C@H](NC(=O)[C@H](CCC(N)=O)NC(=O)[C@@H](NC(=O)[C@H](CO)NC(=O)[C@H](CC(C)C)NC(=O)[C@H](CC(=O)O)NC(=O)[C@H](CO)NC(=O)[C@@H](NC(=O)[C@H](Cc1ccccc1)NC(=O)[C@@H](NC(=O)CNC(=O)[C@H](CCC(=O)O)NC(=O)C(C)(C)NC(=O)[C@@H](N)Cc1ccc(O)cc1)[C@@H](C)O)[C@@H](C)O)[C@@H](C)CC)C(=O)N[C@@H](CCC(=O)O)C(=O)N[C@@H](CCC(=O)O)C(=O)N[C@@H](CCCNC(=N)N)C(=O)N[C@@H](C)C(=O)N[C@@H](C)C(=O)N[C@@](C)(CCCCN)C(=O)N[C@@H](CCC(=O)O)C(=O)N[C@@H](Cc1ccccc1)C(=O)N[C@H](C(=O)N[C@@H](CCC(=O)O)C(=O)N[C@@H](Cc1c[nH]c2ccccc12)C(=O)N[C@@H](CC(C)C)C(=O)N[C@@H](CCCCN)C(=O)N[C@@H](C)C(=O)NCC(=O)NCC(=O)N1CCC[C@H]1C(=O)N[C@@H](CO)C(=O)N[C@@H](CO)C(=O)NCC(=O)N[C@@H](C)C(=O)N1CCC[C@H]1C(=O)N1CCC[C@H]1C(=O)N1CCC[C@H]1C(=O)N[C@@H](CO)C(N)=O)[C@@H](C)CC)C(=O)O
B2: SEQ ID NO: 15 (peptide)
peptide: Y[Aib]QGTFTSDLSIQK([γGlu-Stearoyl])DEQRA[αMeOrn]EFIEWLKAGGPSSGAPPPS-NH2
modifications: N-terminus assumed
SMILES: CCCCCCCCCCCCCCCCCC(=O)N[C@@H](CCC(=O)NCCCC[C@H](NC(=O)[C@H](CCC(N)=O)NC(=O)[C@@H](NC(=O)[C@H](CO)NC(=O)[C@H](CC(C)C)NC(=O)[C@H](CC(=O)O)NC(=O)[C@H](CO)NC(=O)[C@@H](NC(=O)[C@H](Cc1ccccc1)NC(=O)[C@@H](NC(=O)CNC(=O)[C@H](CCC(N)=O)NC(=O)C(C)(C)NC(=O)[C@@H](N)Cc1ccc(O)cc1)[C@@H](C)O)[C@@H](C)O)[C@@H](C)CC)C(=O)N[C@@H](CC(=O)O)C(=O)N[C@@H](CCC(=O)O)C(=O)N[C@@H](CCC(N)=O)C(=O)N[C@@H](CCCNC(=N)N)C(=O)N[C@@H](C)C(=O)N[C@@](C)(CCCN)C(=O)N[C@@H](CCC(=O)O)C(=O)N[C@@H](Cc1ccccc1)C(=O)N[C@H](C(=O)N[C@@H](CCC(=O)O)C(=O)N[C@@H](Cc1c[nH]c2ccccc12)C(=O)N[C@@H](CC(C)C)C(=O)N[C@@H](CCCCN)C(=O)N[C@@H](C)C(=O)NCC(=O)NCC(=O)N1CCC[C@H]1C(=O)N[C@@H](CO)C(=O)N[C@@H](CO)C(=O)NCC(=O)N[C@@H](C)C(=O)N1CCC[C@H]1C(=O)N1CCC[C@H]1C(=O)N1CCC[C@H]1C(=O)N[C@@H](CO)C(N)=O)[C@@H](C)CC)C(=O)O
B3: SEQ ID NO: 11 (peptide)
peptide: Y[Aib]EGTFTSDLSIQK([γGlu-Palmitoyl])EERAA[αMeK]EFIEWLKNTGPSSGAPPPS-NH2
modifications: N-terminus assumed
SMILES: CCCCCCCCCCCCCCCC(=O)N[C@@H](CCC(=O)NCCCC[C@H](NC(=O)[C@H](CCC(N)=O)NC(=O)[C@@H](NC(=O)[C@H](CO)NC(=O)[C@H](CC(C)C)NC(=O)[C@H](CC(=O)O)NC(=O)[C@H](CO)NC(=O)[C@@H](NC(=O)[C@H](Cc1ccccc1)NC(=O)[C@@H](NC(=O)CNC(=O)[C@H](CCC(=O)O)NC(=O)C(C)(C)NC(=O)[C@@H](N)Cc1ccc(O)cc1)[C@@H](C)O)[C@@H](C)O)[C@@H](C)CC)C(=O)N[C@@H](CCC(=O)O)C(=O)N[C@@H](CCC(=O)O)C(=O)N[C@@H](CCCNC(=N)N)C(=O)N[C@@H](C)C(=O)N[C@@H](C)C(=O)N[C@@](C)(CCCCN)C(=O)N[C@@H](CCC(=O)O)C(=O)N[C@@H](Cc1ccccc1)C(=O)N[C@H](C(=O)N[C@@H](CCC(=O)O)C(=O)N[C@@H](Cc1c[nH]c2ccccc12)C(=O)N[C@@H](CC(C)C)C(=O)N[C@@H](CCCCN)C(=O)N[C@@H](CC(N)=O)C(=O)N[C@H](C(=O)NCC(=O)N1CCC[C@H]1C(=O)N[C@@H](CO)C(=O)N[C@@H](CO)C(=O)NCC(=O)N[C@@H](C)C(=O)N1CCC[C@H]1C(=O)N1CCC[C@H]1C(=O)N1CCC[C@H]1C(=O)N[C@@H](CO)C(N)=O)[C@@H](C)O)[C@@H](C)CC)C(=O)O
B4: SEQ ID NO: 17 (peptide)
peptide: Y[Aib]EGTFTSDLSIQLEERAA[αMeK]EFIEWLKNTGPSSGAPPPS-NH2
modifications: N-terminus assumed
SMILES: CC[C@H](C)[C@H](NC(=O)[C@H](CO)NC(=O)[C@H](CC(C)C)NC(=O)[C@H](CC(=O)O)NC(=O)[C@H](CO)NC(=O)[C@@H](NC(=O)[C@H](Cc1ccccc1)NC(=O)[C@@H](NC(=O)CNC(=O)[C@H](CCC(=O)O)NC(=O)C(C)(C)NC(=O)[C@@H](N)Cc1ccc(O)cc1)[C@@H](C)O)[C@@H](C)O)C(=O)N[C@@H](CCC(N)=O)C(=O)N[C@@H](CC(C)C)C(=O)N[C@@H](CCC(=O)O)C(=O)N[C@@H](CCC(=O)O)C(=O)N[C@@H](CCCNC(=N)N)C(=O)N[C@@H](C)C(=O)N[C@@H](C)C(=O)N[C@@](C)(CCCCN)C(=O)N[C@@H](CCC(=O)O)C(=O)N[C@@H](Cc1ccccc1)C(=O)N[C@H](C(=O)N[C@@H](CCC(=O)O)C(=O)N[C@@H](Cc1c[nH]c2ccccc12)C(=O)N[C@@H](CC(C)C)C(=O)N[C@@H](CCCCN)C(=O)N[C@@H](CC(N)=O)C(=O)N[C@H](C(=O)NCC(=O)N1CCC[C@H]1C(=O)N[C@@H](CO)C(=O)N[C@@H](CO)C(=O)NCC(=O)N[C@@H](C)C(=O)N1CCC[C@H]1C(=O)N1CCC[C@H]1C(=O)N1CCC[C@H]1C(=O)N[C@@H](CO)C(N)=O)[C@@H](C)O)[C@@H](C)CC

Key:
Assay in all cases: cell-based or functional assay
human GLP-1 receptor [1] = molecular target: T2, human GLP-1 receptor (human, UniProt P43220 24-463)
Target sequence in this assay (P43220 24-463): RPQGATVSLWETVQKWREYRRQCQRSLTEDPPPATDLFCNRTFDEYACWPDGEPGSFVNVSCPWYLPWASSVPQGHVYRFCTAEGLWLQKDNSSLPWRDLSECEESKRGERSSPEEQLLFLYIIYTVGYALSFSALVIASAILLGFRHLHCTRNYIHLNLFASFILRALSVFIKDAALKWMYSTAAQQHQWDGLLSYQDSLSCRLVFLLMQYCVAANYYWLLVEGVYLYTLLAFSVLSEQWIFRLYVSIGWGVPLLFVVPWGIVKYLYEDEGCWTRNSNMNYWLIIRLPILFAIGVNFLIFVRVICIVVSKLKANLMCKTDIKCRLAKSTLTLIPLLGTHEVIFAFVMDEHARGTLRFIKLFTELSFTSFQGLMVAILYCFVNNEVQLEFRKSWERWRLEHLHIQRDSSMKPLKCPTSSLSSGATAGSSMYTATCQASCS

human GIP receptor [2] = molecular target: T1, human GIP receptor
human GLP-1 receptor [3] = molecular target: T2, human GLP-1 receptor; remark: listed apart in the source
human GIP receptor [4] = molecular target: T1, human GIP receptor; remark: listed apart in the source
human glucagon receptor = human glucagon receptor (human, UniProt P47871 26-477)
Sequence of human glucagon receptor (P47871 26-477): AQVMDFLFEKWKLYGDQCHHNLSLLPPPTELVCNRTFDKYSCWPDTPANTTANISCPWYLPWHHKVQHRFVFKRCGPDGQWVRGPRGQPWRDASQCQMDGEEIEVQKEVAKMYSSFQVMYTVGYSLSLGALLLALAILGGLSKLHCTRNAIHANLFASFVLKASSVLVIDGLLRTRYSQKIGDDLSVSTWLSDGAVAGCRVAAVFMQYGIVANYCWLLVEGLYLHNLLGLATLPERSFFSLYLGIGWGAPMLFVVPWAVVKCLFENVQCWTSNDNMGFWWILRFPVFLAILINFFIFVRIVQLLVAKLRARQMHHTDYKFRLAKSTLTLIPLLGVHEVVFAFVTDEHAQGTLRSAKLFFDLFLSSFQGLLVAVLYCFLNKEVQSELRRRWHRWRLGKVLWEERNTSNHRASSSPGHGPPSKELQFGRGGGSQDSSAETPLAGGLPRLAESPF

human GLP-1 receptor [5] = molecular target: T2, human GLP-1 receptor; remark: listed apart in the source
human GIP receptor [6] = molecular target: T1, human GIP receptor; remark: listed apart in the source

Row | Binder | EC50 hGLP-1 R [pM] (cAMP formation) (human GLP-1 receptor [1]) | EC50 hGIP R [pM] (cAMP formation) (human GIP receptor [2]) | EC50 hGLP-1 R [pM] (cAMP formation) (human GLP-1 receptor [3]) | EC50 hGIP R [pM] (cAMP formation) (human GIP receptor [4]) | EC50 hGLUC R [pM] (cAMP formation) (human glucagon receptor) | EC50 hGLP-1 R [pM] (cAMP formation) (human GLP-1 receptor [5]) | EC50 hGIPR [pM] (cAMP formation) (human GIP receptor [6])
1 | YAEGTFTSDVSIYLEGQAAKEFIAWLVKGR-NH2 [Tyr(1)Ile(12)-GLP1] | 5 pM | 3660 pM | – | – | – | – | –
2 | B1 | – | – | 4.1 pM | 2.5 pM | 19800 pM | – | –
3 | B2 | – | – | 16.1 pM | 8.9 pM | 4 pM | – | –
4 | B3 | – | – | 5.1 pM | 7 pM | 3160 pM | 5.1 pM | 7 pM
5 | B4 | – | – | – | – | – | 5.9 pM | 163 pM
